Results reported in patent US10377818B2, “Method of treating glioma” (The Board of Trustees of the Leland Stanford Junior …, priority 2015, dated 2019).

Tested on: SU-pcGBM2 cells
Assay: EdU incorporation assay, proliferation index of pHGG cells (SU-pcGBM2)
Type: cell-based, human

B1: brevican: Recombinant candidate protein from proteomic analyses of cortical slice conditioned media (protein, UniProt Q96GW7 23-911, looked up)
Brevican core protein: DVLEGDSSEDRAFRVRIAGDAPLQGVLGGALTIPCHVHYLRPPPSRRAVLGSPRVKWTFLSRGREAEVLVARGVRVKVNEAYRFRVALPAYPASLTDVSLALSELRPNDSGIYRCEVQHGIDDSSDAVEVKVKGVVFLYREGSARYAFSFSGAQEACARIGAHIATPEQLYAAYLGGYEQCDAGWLSDQTVRYPIQTPREACYGDMDGFPGVRNYGVVDPDDLYDVYCYAEDLNGELFLGDPPEKLTLEEARAYCQERGAEIATTGQLYAAWDGGLDHCSPGWLADGSVRYPIVTPSQRCGGGLPGVKTLFLFPNQTGFPNKHSRFNVYCFRDSAQPSAIPEASNPASNPASDGLEAIVTVTETLEELQLPQEATESESRGAIYSIPIMEDGGGGSSTPEDPAEAPRTLLEFETQSMVPPTGFSEEEGKALEEEEKYEDEEEKEEEEEEEEVEDEALWAWPSELSSPGPEASLPTEPAAQEESLSQAPARAVLQPGASPLPDGESEASRPPRVHGPPTETLPTPRERNLASPSPSTLVEAREVGEATGGPELSGVPRGESEETGSSEGAPSLLPATRAPEGTRELEAPSEDNSGRTAPAGTSVQAQPVLPTDSASRGGVAVVPASGDCVPSPCHNGGTCLEEEEGVRCLCLPGYGGDLCDVGLRFCNPGWDAFQGACYKHFSTRRSWEEAETQCRMYGAHLASISTPEEQDFINNRYREYQWIGLNDRTIEGDFLWSDGVPLLYENWNPGQPDSYFLSGENCVVMVWHDQGQWSDVPCNYHLSYTCKMGLVSCGPPPELPLAQVFGRPRLRYEVDTVLRYRCREGLAQRNLPLIRCQENGRWEAPQISCVPRRPARALHPEEDPEGRQGRLLGRWKALLIPPSSPMPGP
effect on proliferation index relative to aCSF control (recombinant candidate proteins at 100 nM for 24 hours): did not differ

B2: NLGN2: Recombinant soluble neuroligin-2 (protein, UniProt Q8NFZ4 15-677, looked up)
extracellular domain: QRGGGGPGGGAPGGPGLGLGSLGEERFPVVNTAYGRVRGVRRELNNEILGPVVQFLGVPYATPPLGARRFQPPEAPASWPGVRNATTLPPACPQNLHGALPAIMLPVWFTDNLEAAATYVQNQSEDCLYLNLYVPTEDGPLTKKRDEATLNPPDTDIRDPGKKPVMLFLHGGSYMEGTGNMFDGSVLAAYGNVIVATLNYRLGVLGFLSTGDQAAKGNYGLLDQIQALRWLSENIAHFGGDPERITIFGSGAGASCVNLLILSHHSEGLFQKAIAQSGTAISSWSVNYQPLKYTRLLAAKVGCDREDSAEAVECLRRKPSRELVDQDVQPARYHIAFGPVVDGDVVPDDPEILMQQGEFLNYDMLIGVNQGEGLKFVEDSAESEDGVSASAFDFTVSNFVDNLYGYPEGKDVLRETIKFMYTDWADRDNGEMRRKTLLALFTDHQWVAPAVATAKLHADYQSPVYFYTFYHHCQAEGRPEWADAAHGDELPYVFGVPMVGATDLFPCNFSKNDVMLSAVVMTYWTNFAKTGDPNQPVPQDTKFIHTKPNRFEEVVWSKFNSKEKQYLHIGLKPRVRDNYRANKVAFWLELVPHLHNLHTELFTTTTRLPPYATRWPPRPPAGAPGTRRPPPPATLPPEPEPEPGPRAYDRFPGDSRDYSTELS
modifications: extracellular domain
effect on pHGG cell proliferation (recombinant NLGN2 at 1, 10 or 100 nM for 24 hours): No effect of NLGN2 on pHGG cell proliferation was observed
